In US20130129845A1, “SCREENING METHOD FOR CHRONIC INFLAMMATION INHIBITORS OR CANCER METASTASIS INHIBITORS USING INHIBITION OF BINDING BETWEEN EMMPRIN AND S100A9 AS INDEX” (priority 2010, published 2013):

Tests used:
EMMPRIN = molecular target: T1, EMMPRIN (Homo sapiens, UniProt P35613); test: Identification of EMMPRIN-binding proteins by immunoprecipitation and Western blotting; conditions: culture supernatants mixed; HA and Myc antibody; FIG. 6
T1 construct: cDNA coding for the human EMMPRIN extracellular domain (with a myc-HA-Flag-6His tag added at the C-terminus); made in house; host or cells: HEK293 (transfected)
T1 sequence (P35613 138-325 limits assumed): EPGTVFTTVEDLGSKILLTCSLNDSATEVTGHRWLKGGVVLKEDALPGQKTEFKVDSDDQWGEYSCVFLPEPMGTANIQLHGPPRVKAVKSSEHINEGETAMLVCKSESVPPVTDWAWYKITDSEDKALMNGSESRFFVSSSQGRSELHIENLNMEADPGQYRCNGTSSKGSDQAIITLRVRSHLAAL
Excerpt: EMMPRIN-binding proteins were identified by immunoprecipitation and Western blotting, for confirmation that EMMPRIN is a novel receptor for S100 protein. […] The S100 proteins used were S100A8 and S100A9 protein. HEK293 cells were transfected with plasmids coding for the proteins (with HA tags attached to the C-termini), and the proteins were isolated from the respective culture supernatants.
In order to analyze binding between EMMPRIN and S100A8 and S100A9 protein, the culture supernatants containing the respective proteins were mixed and reacted, and then HA antibody and Myc antibody were used for immunoprecipitation.

[1] = test system: MMP-1 and MMP-10 expression; test: MMP expression in keratinocytes by real-time quantitative PCR; type: cell-based, human; conditions: FIG. 5
Protocol: (§1) Using real-time quantitative PCR, it was then investigated whether addition of S100A9 also accelerates expression of IL-8 (CXCL-8), TNFα, IL1-F9 and CXCL-1, and whether suppressing expression of EMMPRIN has any effect on expression of these cytokines. The same method was also used to examine the effect of S100A9 stimulation on MMP-1 and MMP-10 expression.
(§2) Growth-phase NHEK, cultured in EpiLife™-KG2 (Cascade Biologies) were exposed for 3 hours after exchanging to the same culture medium containing and not containing 2 mM calcium chloride and S100A8 or S100A9 (10 μg/ml each), and a MagNA™ Pure mRNA extraction kit and a MagNA Pure™ device (Roche Diagnostics, Tokyo, Japan) were used for extraction of the mRNA. The obtained mRNA was reverse transcripted using SuperScript™ II (Invitrogen Corporation, Carlsbad, Calif., U.S.). Real-time quantitative PCR was performed on a LightCycler high-speed thermal cycler system using a LightCycler FastStart DNA master SYBR green I kit (Roche Diagnostics), according to the manufacturer's instructions. […] The expression level of each gene was quantitatively analyzed using LightCycler analysis software (NPL 11: Morrison T B et al., Biotechniques (1998)24:954-958, 960, 962). […]

MMP-1 expression = test: Effect of soluble EMMPRIN on MMP expression in keratinocytes; type: cell-based, human
Excerpt: It was therefore investigated whether soluble EMMPRIN actually accelerates expression of MMP.
It is believed that MMP expression was suppressed when soluble EMMPRIN and S100A9 were both present because S100A9 which induces MMP production was scavenged by soluble EMMPRIN, with both forming a bonded complex.

[2] = test system: IL-8 (CXCL-8), TNFα, IL1-F9 and CXCL-1 expression; test: Cytokine expression in keratinocytes (NHEK) by real-time quantitative PCR; type: cell-based, human; conditions: S100A9-added sample with control siRNA (A9/LF); FIG. 4
Protocol: as §1, §2

Q: Which “binding to EMMPRIN (band in Western blot after immunoprecipitation)” value (EMMPRIN) does the source give for “S100A8: EF-hand calcium-binding S100 family protein” here?
A: The value was “only a band for EMMPRIN near 32 kDa was confirmed”.

Q: Which “binding to EMMPRIN (band in Western blot after immunoprecipitation)” value (EMMPRIN) does the source give for “S100A9: EF-hand calcium-binding S100 family protein, added to keratinocytes as stimulus” here?
A: The value was “a band representing their bound form was confirmed near 47.5 kDa”.

Q: What about the “expression of MMP on addition of S100A9” value [1] of the same molecule?
A: Its value is “accelerated expression of MMP”.

Q: What about the MMP-1 expression (MMP-1 expression; S100A9 alone, FIG. 7) of the same molecule?
A: Its MMP-1 expression is “notably accelerated”.

Q: And the “expression of cytokines (IL-8, TNFα, IL1-F9, CXCL-1) on addition of S100A9” value [2]?
A: The value was “induced expressed of all of the cytokines”.

B1: soluble EMMPRIN: purified recombinant human EMMPRIN extracellular domain with myc-HA-Flag-6His tag at the C-terminus (protein, UniProt P35613 138-323, looked up)
extracellular domain: EPGTVFTTVEDLGSKILLTCSLNDSATEVTGHRWLKGGVVLKEDALPGQKTEFKVDSDDQWGEYSCVFLPEPMGTANIQLHGPPRVKAVKSSEHINEGETAMLVCKSESVPPVTDWAWYKITDSEDKALMNGSESRFFVSSSQGRSELHIENLNMEADPGQYRCNGTSSKGSDQAIITLRVRSHLA
modifications: extracellular domain C-terminal myc-HA-Flag-6His tag
notes: purified recombinant human EMMPRIN extracellular domain with myc-HA-Flag-6His tag at the C-terminus
Q: How did the MMP-1-inducing effect (MMP-1 expression; added to keratinocytes at 0.025, 0.25 and 2.5 μM, FIG. 7) turn out when B1 was run?
A: Its MMP-1-inducing effect is “virtually no MMP-1-inducing effect”.

Q: What about the “MMP1 expression-accelerating effect of S100A9” value (MMP-1 expression; both soluble EMMPRIN and S100A9 added to keratinocytes, FIG. 7) of the same molecule?
A: Its value is “significantly suppressed”.

Q: And the IL-8 expression (MMP-1 expression; results not shown)?
A: The IL-8 expression was “significantly suppressed”.

Q: What about the MMP-10 expression (MMP-1 expression; results not shown) of the same molecule?
A: The MMP-10 expression was “significantly suppressed”.

Q: What about the TNFα expression (MMP-1 expression; results not shown) of the same molecule?
A: The TNFα expression was “significantly suppressed”.
